Laboratory results from doi:10.1101/2024.01.14.575549v2 (bioRxiv, 2024).

Experiments:
[1] = tested on: human neuroblastoma SH-SY5Y cells; assay: Aβ42 aggregates on SH-SY5Y cells with or without 1,6-hexanediol treatment; format: cell-based
[2] = Susceptibility of Aβ42 condensates to 1,6-hexanediol and KCl in vitro; format: physicochemical; details: confocal microscopy
[3] = Diffusion coefficient of free Aβ42 in solution by MDS; format: physicochemical; details: Stokes-Einstein equation from hydrodynamic radius measured by MDS
[4] = format: physicochemical

Molecule | decrease of Aβ42 aggregate number normalised by total cell area, versus vehicle ([1]; SH-SY5Y cells, 2 μM Aβ42 monomer for 16 h, then 2.5% w/v 1,6-hexanediol) | area of Aβ42 species at high cell densities ([1]; SH-SY5Y 40 000 cells/well, 2 μM monomer, 48 h incubation) | response of mature Aβ42 condensates to 100% 1,6-hexanediol ([2]; condensates incubated 22 h on DMPC membrane, 100% (6 M) HXD) | response of Aβ42 condensates to 50% 1,6-hexanediol ([2]; condensates on lipid membrane, 50% HXD) | diffusion coefficient of Aβ42 in solution [3] | timescale for the direct solution to amyloid fibril transition ([4]; estimated from Figure 6d (FCS, non-LLPS conditions)) | ΔG^‡LLPS, free energy barrier for monomeric to liquid transition ([4]; from t = 3 h, c = 2 μM) | ΔG^‡LTS, free energy barrier for liquid to solid transition ([4]; from t = 21 h)
OCCCCCCO [HXD, 1,6-hexanediol, reference compound] | 30% | – | – | – | – | – | – | –
amyloid β1-42 [Aβ42] | – | < 50 µm^2 | remained intact | dissolved | 1.4 ± 0.1 × 10^−10 m^2s^−1 | 61 h | 8.01 kcal/mol | 8.05 kcal/mol
